Laboratory results taken from US20230235004A1 (published 2023).
Substitutions are numbered along the chain they refer to. Like-named read-outs stand apart in the source and are kept apart here. One block for each binder: values may come before it.

What was measured:
Assay in all cases: cell binding
[1] = molecular target: T1, mouse MAdCAM expressed on cells (mouse, UniProt Q61826 22-405)
T1 construct: whole, on cells
T1 sequence (looked up): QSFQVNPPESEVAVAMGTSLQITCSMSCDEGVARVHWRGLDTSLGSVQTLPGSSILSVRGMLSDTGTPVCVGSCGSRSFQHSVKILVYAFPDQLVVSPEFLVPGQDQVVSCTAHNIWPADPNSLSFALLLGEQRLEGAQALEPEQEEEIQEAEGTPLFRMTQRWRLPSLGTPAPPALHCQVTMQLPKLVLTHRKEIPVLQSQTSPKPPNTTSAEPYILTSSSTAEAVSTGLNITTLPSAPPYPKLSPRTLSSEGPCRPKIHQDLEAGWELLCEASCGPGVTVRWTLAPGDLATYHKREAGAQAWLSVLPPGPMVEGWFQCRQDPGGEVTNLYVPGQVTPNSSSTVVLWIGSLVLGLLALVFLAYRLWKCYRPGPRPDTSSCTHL

[2] = molecular target: T2, human MAdCAM expressed on cells (human, UniProt Q13477 19-382)
T2 construct: whole, on cells
T2 sequence (looked up): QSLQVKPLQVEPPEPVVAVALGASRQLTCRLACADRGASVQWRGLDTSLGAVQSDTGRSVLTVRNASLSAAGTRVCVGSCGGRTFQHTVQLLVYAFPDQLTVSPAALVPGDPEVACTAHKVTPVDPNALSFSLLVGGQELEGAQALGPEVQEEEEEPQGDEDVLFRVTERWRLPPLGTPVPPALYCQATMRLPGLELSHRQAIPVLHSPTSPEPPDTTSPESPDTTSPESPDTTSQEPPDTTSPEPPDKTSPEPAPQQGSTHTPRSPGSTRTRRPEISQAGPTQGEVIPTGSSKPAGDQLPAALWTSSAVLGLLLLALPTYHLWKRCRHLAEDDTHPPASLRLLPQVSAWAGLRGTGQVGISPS

[3] = molecular target: T1, mouse MAdCAM expressed on cells; remark: listed apart in the source
[4] = molecular target: T2, human MAdCAM expressed on cells; remark: listed apart in the source

B1: MAdCAM antibody Table 1 clone 21 (scFv)
scFv: EVQLLESGGGLVQPGGSLRLSCAASGFTFSNAWMSWVRQAPGKGLEWVSTIVGNGGATYYADSVKGRFTISRDNSKNTLYLQMNSLRAEDTAVYYCARDNPLRWQGMDVWGQGTLVTVSSGGGGSGGGGSGGGGSGGGGSDIQMTQSPSSLSASVGDRVTITCRASQDISNYLNWYQQKPGKAPKLLIYAASSLQSGVPSRFSGSGSGTDFTLTISSLQPEDFATYYCQQSYSIPPTFGPGTKVDIK
binding result [1]: no binding | binding result [2]: binds

B2: MAdCAM antibody Table 1 clone 8 (scFv)
scFv: EVQLLESGGGLVQPGGSLRLSCAASGFMFGDYAMHWVRQAPGKGLEWVSAISGSGGSTYYADSVKGRFTISRDNSKNTLYLQMNSLRAEDTAVYYCAKDLVVAGIWYFDLWGRGTLVTVSSGGGGSGGGGSGGGGSGGGGSDIQMTQSPSSLSASVGDRVTITCRASQGISNNLNWYQQKPGKAPKLLIYDASSLESGVPSRFSGSGSGTDFTLTISSLQPEDFATYYCQQTHSFPSTFGQGTKLEIK
binding result [1]: no binding

B3: MAdCAM Antibody Table 2 clone 73 (antibody, V domains shown)
VH: QVQLVQSGAEVKKPGASVKVSCKASGYTFTSNYVHWVRQAPGQGLEWMGRINPHSGDTSYAQKFQGRVTMTRDTSTSTVYMELSSLRSEDTAVYYCARAGQLWSDWYFDLWGRGTLVTVSS
VL: DIQMTQSPSSLSASVGDRVTITCQASQDIRNYLNWYQQKPGKAPKLLIYAATALRTGVPSRFSGSGSGTDFTLTISSLQPEDFATYYCQQSYSHPLTFGQGTKVEIK
notes: IgG format
binding result [3]: no binding | binding result [4]: binds

B4: MAdCAM Antibody Table 2 clone 80 (antibody, V domains shown)
VH: EVQLLESGGGLVQPGGSLRLSCAASGFTFDDYAMHWVRQAPGKGLEWVSAISGSGGSTYYADSVKGRFTISRDNSKNTLYLQMNSLRAEDTAVYYCAKDLGVVVPAALDYWGQGTTVTVSS
VL: B3 VL with R30S, Y32H, A50D, T52S, A53N, R55E, T56A, H94T, Q100G
notes: IgG format
binding result [3]: no binding | binding result [4]: binds

B5: MAdCAM antibody Table 1 clone 27 (scFv)
scFv: QVQLVQSGAEVKKPGASVKVSCKASGYTFTGYYIHWVRQAPGQGLEWMGWMNPNSGNTGYAQKFQGRVTMTRDTSTSTVYMELSSLRSEDTAVYYCARDPGFLGYCSGGSCYDGWFDPWGQGTLVTVSSGGGGSGGGGSGGGGSGGGGSDIQMTQSPSSLSASVGDRVTITCRASQSISSYLHWYQQKPGKAPKLLIYAASSLQSGVPSRFSGSGSGTDFTLTISSLQPEDFATYYCQQSYTAPYTFGQGTKLEIK
binding result [1]: no binding | binding result [2]: binds

B6: MAdCAM Antibody Table 2 clone 81 (antibody, V domains shown)
VH: EVQLLESGGGLVKPGGSLRLSCAASGFAFSSHWMHWVRQAPGKGLEWVAGTSGSGESRDYADFVKGRFTISRDDSKNTLYLQMNSLKTEDTAVYYCARETYYYYYMDVWGKGTTVTVSS
VL: DIQMTQSPSSLSASVGDRVTITCRASQGISNYLAWYQQKPGKAPKLLIYDAANLEGGVPSRFSGSGSGTDFTLTISSLQPEDFATYYCQQSDIFPPTFGQGTKVEIK
notes: IgG format
binding result [3]: binds | binding result [4]: binds

B7: MAdCAM Antibody Table 2 clone 69 (antibody, V domains shown)
VH: QVQLVQSGAEVKKPGASVKVSCKASGYTFTSYYMHWVRQAPGQGLEWMGIIDPSGGSTSYAQKFQGRVTMTRDTSTSTVYMELSSLRSEDTAVYYCAREEWSSGGVGYFDYWGQGTLVTVSS
VL: DIQMTQSPSSLSASVGDRVTITCRASQGISSYLAWYQQKPGKAPKLLIYATSSLQTGVPSRFSGSGSGTDFTLTISSLQPEDFATYYCQQTYSIPITFGQGTRLEIK
notes: IgG format
binding result [3]: no binding | binding result [4]: binds

B8: MAdCAM Antibody Table 2 clone 71 (antibody, V domains shown)
VH: QVQLVQSGAEVKKPGASVKVSCKASGYTFTSYYMHWVRQAPGQGLEWMGIINPSGGSTSYAQKFQGRVTMTRDTSTSTVYMELSSLRSEDTAVYYCARDSVAGTGGRYYGMDVWGQGTLVTVSS
VL: B7 VL with S31N, L33F, T51A, T56G, T91S, I94L, I96Y, R103K
notes: IgG format
binding result [3]: no binding | binding result [4]: binds

B9: MAdCAM Antibody Table 2 clone 70 (antibody, V domains shown)
VH: QVQLVQSGAEVKKPGASVKVSCKASGYPFTDYYMHWVRQAPGQGLEWMGWIKPNSGDTEYAQKFQGRVTMTRDTSTSTVYMELSSLRSEDTAVYYCARDRFVGKPDYYYYGMDVWGQGTMVTVSS
VL: B7 VL with G28S, S31V, Y32W, T51A, T56S, T91S, S93D, I94T, I96Y, R103K
notes: IgG format
binding result [3]: no binding | binding result [4]: binds

B10: MAdCAM Antibody Table 2 clone 77 (antibody, V domains shown)
VH: EVQLLESGGGLVQPGGSLRLSCAASEFTFSNAWMSWVRQAPGKGLEWVASISSTSAYIDYADSVKGRFTISRDNSKNTLYLQMNSLRAEDTAVYYCAREVVGATTFDYWGQGTLVTVSS
VL: B7 VL with G28S, S31T, Y32W, T51A, T56S, T91A, Y92N, S93A, I94F, I96P
notes: IgG format
binding result [3]: binds | binding result [4]: binds

B11: MAdCAM Antibody Table 2 clone 72 (antibody, V domains shown)
VH: QVQLVQSGAEVKKPGASVKVSCKASGYTFTSYYMHWVRQAPGQGLEWMGVINPIGGTTTYAQKFQGRVTMTRDTSTSTVYMELSSLRSEDTAVYYCASGAPSYYYYGMDVWGQGTLVTVSS
VL: B3 VL with Q24R, D28S, R30S, N31S, A50G, A51T, T52S, A53Y, R55A, H94T
notes: IgG format
binding result [3]: no binding | binding result [4]: binds

B12: MAdCAM antibody Table 1 clone 17 (scFv)
scFv: EVQLLESGGGLVQPGGSLRLSCAASGFTFSDSAMHWVRQAPGKGLEWVSAISGSGSTIYYADSVKGRFTISRDNSKNTLYLQMNSLRAEDTAVYYCVSDIAVAGHWYFDLWGRGTLVTVSSGGGGSGGGGSGGGGSGGGGSDIQMTQSPSSLSASVGDRVTITCRASQSISTFLNWYQQKPGKAPKLLIYAASRLEGGVPSRFSGSGSGTDFTLTISSLQPEDFATYYCQQANSFPLTFGPGTKVDIK
binding result [1]: no binding | binding result [2]: binds

B15: MAdCAM antibody Table 1 clone 10 (scFv)
scFv: QVQLVQSGAEVKKPGASVKVSCKASGYTLTTWYMYWVRQAPGQGLEWMGWINPNRGATNYAQKFQGRVTMTRDTSTSTVYMELSSLRSEDTAVYYCAKGDLWGAMDVWGQGTLVTVSSGGGGSGGGGSGGGGSGGGGSDIQMTQSPSSLSASVGDRVTITCRASDNIGSWLAWYQQKPGKAPKLLIYAASSLQSGVPSRFSGSGSGTDFTLTISSLQPEDFATYYCQQGYSTPPTFGQGTKVEIK
binding result [1]: no binding | binding result [2]: binds

The remaining lines, values ahead:

binding result [1]: no binding | binding result [2]: binds
B13: MAdCAM antibody Table 1 clone 16 (scFv)
scFv: EVQLLESGGGLVQPGGSLRLSCAASGFTFEDYAMHWVRQAPGKGLEWVSYLNSDGGSTSYADSVKGRFTISRDNSKNTLYLQMNSLRAEDTAVYYCAKDYCTNGVCAFDYWGQGTLVTVSSGGGGSGGGGSGGGGSGGGGSDIQMTQSPSSLSASVGDRVTITCRASQSISTYLNWYQQKPGKAPKLLIYDASNLETGVPSRFSGSGSGTDFTLTISSLQPEDFATYYCQQSYTIPITFGQGTRLEIK

binding result [3]: no binding | binding result [4]: binds
B14: MAdCAM Antibody Table 2 clone 68 (antibody, V domains shown)
VH: EVQLLESGGGLVQPGGSLRLSCAASGFTFGDYAMSWVRQAPGKGLEWVAVVSYDGTNKYYADSVKGRFTISRDNSKNTLYLQMNSLRAEDTAVYYCAKDICSSTSCYFDLWGRGTLVTVSS
VL: DIQMTQSPSSLSASVGDRVTITCRASQNINNYVNWYQQKPGKAPKLLIYDASNLETGVPSRFSGSGSGTDFTLTISSLQPEDFATYYCQQANSFPPTFGQGTRLEIK
notes: IgG format

binding result [1]: no binding
B16: MAdCAM antibody Table 1 clone 25 (scFv)
scFv: B15 scFv

binding result [1]: no binding
B17: MAdCAM antibody Table 1 clone 30 (scFv)
scFv: B15 scFv

binding result [1]: no binding | binding result [2]: binds
B18: MAdCAM antibody Table 1 clone 26 (scFv)
scFv: B15 scFv with L113T

binding result [1]: no binding | binding result [2]: binds
B19: MAdCAM antibody Table 1 clone 28 (scFv)
scFv: QVQLVQSGAEVKKPGASVKVSCKASGYTFTDYFLHWVRQAPGQGLEWMGWMNPTSGNTGYAQKFQGRVTMTRDTSTSTVYMELSSLRSEDTAVYYCAREGEGSGFDYWGQGTLVTVSSGGGGSGGGGSGGGGSGGGGSDIQMTQSPSSLSASVGDRVTITCRASQGINSWLAWYQQKPGKAPKLLIYDASNLETGVPSRFSGSGSGTDFTLTISSLQPEDFATYYCQQSYSTPLTFGGGTKVEIK
